Measured values published in patent publication US20250250335A1 (SHENGHE CHINA BIOPHARMACEUTICAL, published 2025).

T1: CEACAM5 on the surface of the tumor cells (HPAFII cells) (UniProt P06731 35-685)
T1 construct: whole, on cells
T1 sequence (looked up): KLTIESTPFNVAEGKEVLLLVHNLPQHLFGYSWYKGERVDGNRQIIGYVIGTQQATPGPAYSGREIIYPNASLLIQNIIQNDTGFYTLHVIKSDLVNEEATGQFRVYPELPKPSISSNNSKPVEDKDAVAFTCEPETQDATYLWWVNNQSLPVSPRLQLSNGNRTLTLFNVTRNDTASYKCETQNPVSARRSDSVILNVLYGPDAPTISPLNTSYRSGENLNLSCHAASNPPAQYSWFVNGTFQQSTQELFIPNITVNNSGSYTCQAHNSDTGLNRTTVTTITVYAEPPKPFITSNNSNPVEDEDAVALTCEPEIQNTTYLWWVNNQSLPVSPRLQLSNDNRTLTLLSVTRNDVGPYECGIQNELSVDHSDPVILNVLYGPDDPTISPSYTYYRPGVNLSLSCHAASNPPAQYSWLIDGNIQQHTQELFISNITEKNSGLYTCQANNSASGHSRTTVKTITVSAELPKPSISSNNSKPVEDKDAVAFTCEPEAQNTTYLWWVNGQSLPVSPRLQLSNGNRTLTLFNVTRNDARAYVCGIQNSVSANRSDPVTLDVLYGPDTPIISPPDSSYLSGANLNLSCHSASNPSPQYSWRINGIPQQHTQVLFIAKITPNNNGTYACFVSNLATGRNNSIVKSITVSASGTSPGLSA

T2: CEACAM6 on the surface of the tumor cells (HPAFII cells) (UniProt P40199 35-320)
T2 construct: whole, on cells
T2 sequence (looked up): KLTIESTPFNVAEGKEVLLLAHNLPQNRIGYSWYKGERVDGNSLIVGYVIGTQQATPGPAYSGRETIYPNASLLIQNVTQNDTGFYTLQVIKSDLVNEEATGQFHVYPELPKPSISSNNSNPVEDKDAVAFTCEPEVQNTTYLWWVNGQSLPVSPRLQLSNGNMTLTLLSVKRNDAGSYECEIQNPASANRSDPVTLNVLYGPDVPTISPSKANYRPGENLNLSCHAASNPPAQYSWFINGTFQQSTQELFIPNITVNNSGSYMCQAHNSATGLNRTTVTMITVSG

T3: human CEACAM5-his (ACRO CE5-H5226) (human, UniProt P06731 35-685)
T3 construct: Bought protein; not shown: His tag
T3 sequence (looked up): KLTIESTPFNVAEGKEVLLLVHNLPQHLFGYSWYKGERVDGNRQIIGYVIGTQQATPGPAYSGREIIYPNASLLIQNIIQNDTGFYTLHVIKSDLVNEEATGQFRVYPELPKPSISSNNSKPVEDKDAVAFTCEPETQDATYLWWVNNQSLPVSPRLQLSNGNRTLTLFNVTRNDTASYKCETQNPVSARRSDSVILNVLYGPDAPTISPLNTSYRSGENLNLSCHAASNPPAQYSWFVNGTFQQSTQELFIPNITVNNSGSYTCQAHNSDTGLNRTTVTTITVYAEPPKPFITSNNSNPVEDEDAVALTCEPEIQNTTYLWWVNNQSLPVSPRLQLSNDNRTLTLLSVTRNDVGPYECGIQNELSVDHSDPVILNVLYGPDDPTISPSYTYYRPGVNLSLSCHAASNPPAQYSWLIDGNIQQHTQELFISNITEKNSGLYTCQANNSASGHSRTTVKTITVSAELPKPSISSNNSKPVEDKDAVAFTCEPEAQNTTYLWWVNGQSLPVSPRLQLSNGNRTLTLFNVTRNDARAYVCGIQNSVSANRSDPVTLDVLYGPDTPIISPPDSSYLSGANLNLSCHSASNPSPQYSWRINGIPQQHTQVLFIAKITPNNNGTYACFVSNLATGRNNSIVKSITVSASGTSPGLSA

T4: human CEACAM6-his (ACRO CE6-H5223) (human, UniProt P40199 35-320)
T4 construct: Bought protein; not shown: His tag
T4 sequence (looked up): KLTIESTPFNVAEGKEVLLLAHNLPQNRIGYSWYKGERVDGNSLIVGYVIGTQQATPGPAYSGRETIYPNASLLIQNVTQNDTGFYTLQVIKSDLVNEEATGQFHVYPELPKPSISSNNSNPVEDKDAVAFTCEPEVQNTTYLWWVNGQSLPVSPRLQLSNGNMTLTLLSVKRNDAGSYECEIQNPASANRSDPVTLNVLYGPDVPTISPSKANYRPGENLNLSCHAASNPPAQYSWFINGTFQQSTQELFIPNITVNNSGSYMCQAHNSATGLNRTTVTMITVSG


Tests used:
[1] = target: T1, CEACAM5 on the surface of the tumor …; test: flow cytometry on HPAFII cells (Mean-FITC); the cells carry CEACAM5 and CEACAM6, signal not divided between the two
Experimental: (§1) The antibody to be tested was taken as the initial concentration of 200 nM and diluted 5-fold with 6 gradients. The HPAFII cells (From USTC […] FOR ADVANCED STUDIES) in the incubator were taken out, and the cell suspension was transferred to a 15 mL centrifuge tube, centrifuged, and counted by resuspension in PBS. A blank control group (Blank), a negative control group (NC), an experimental group, a positive control group and the irrelevant antibody group were kept. […] The cell suspension was spread in a 96-well plate according to about 3×10⁵ cells/well. Centrifugation (1000 rpm, 5 min) was performed, followed by washing with PBS, re-centrifugation, and repeated twice to remove media residues. The supernatant was discarded, 100 μL of primary antibody solution and irrelevant antibody solution were added to the experimental group and irrelevant antibody group, respectively, and the cells were resuspended and incubated at room temperature for 1 h. The blank group, and the negative control group were incubated with an equal amount of PBS.
(§2) After 1 h, PBS was added to wash twice. After the supernatant was discarded, 100 μL of fluorescent secondary antibody dilution (Mouse-derived secondary antibody from Abcam ab6785) was added to each sample group, except for the blank group which was added with 100 μL of PBS. After incubation at room temperature and protected from light for 0.5 h, centrifugation was performed and PBS added to wash the samples twice. After the supernatant was discarded, 120 μL of PBS was added to resuspend and sequentially flow cytometry was performed to detect the mean fluorescence intensity. The concentration of the antibody was logarithmically taken as the horizontal coordinate, and the Sigmoidaldose-response (VariableSlope) method (GraphPadPrism Software, GraphPadSoftware, San Diego, California) was chosen to perform a nonlinear regression to obtain the binding activity curves of the antibody on HPAFII cells.

[2] = target: T2, CEACAM6 on the surface of the tumor …; test: as above
Experimental: as §1, §2

[3] = target: T3, human CEACAM5-his (ACRO CE5-H5226); test: ELISA on coated human CEACAM5, OD450
Experimental: (§3) The binding activity of the antibodies to human CEACAM5, human CEACAM6, and human CEACAM6 (AB) proteins was detected by ELISA. The plate coated with proteins was incubated at 4° C. overnight, and the 96-well ELISA plate blocked with 2% PBS-BSA was added with the antibody to be detected and incubated at 37° C. for 1 h. After washing 3 times with PBS containing 0.05% Tween, the absorbance value of each well was read at wavelength 450 nm with the gradient-diluted mouse-derived candidate antibody as the primary antibody and anti-mouse-IgG-FC-HRP as the secondary antibody, and the absorbance value of each well was read at wavelength 450 nm after the TMB color development.

Human-CEACAM6 (AB)-His [4] = target: T5, Human-CEACAM6 (AB)-His (human, UniProt P40199 145-314); test: ELISA on coated human CEACAM6 (AB), OD450
T5 construct: Made in house, purified on a nickel column
T5 sequence (P40199 other isoform, or with tags, fused parts or gaps limits assumed): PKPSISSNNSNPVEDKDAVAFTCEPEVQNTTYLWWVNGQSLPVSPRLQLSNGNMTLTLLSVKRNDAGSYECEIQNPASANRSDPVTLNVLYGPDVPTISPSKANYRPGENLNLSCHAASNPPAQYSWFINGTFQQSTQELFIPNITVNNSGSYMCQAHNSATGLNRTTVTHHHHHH
Experimental: as §3

[5] = target: T3, human CEACAM5-his (ACRO CE5-H5226); test: SPR (Biacore), antibody captured on CM5 chip, antigen as analyte, 1:1 model
Experimental: (§4) The CM5 sensor chip was activated at a flow rate of 10 μL/min for 420 seconds. The channel was then injected with 30 μg/mL of anti-rat Fc IgG in 10 mM NaAc (pH 4.5) at a flow rate of 10 μL/min. The chip was inactivated with 1 M ethanolamine-hydrochloric acid (GE) for 420 seconds at a flow rate of 10 μL/min.
(§5) Candidate antibodies in running buffer 1×HBS-EP+ (10 mM HEPES, 150 mM NaCl, 3 mM EDTA, 0.05% Tween 20, pH 7.4) were captured onto Fc2 with anti-rat Fc IgG at a flow rate of 10 μL/min. The 10 nM human CEACAM5-his protein or CEACAM-6-his or CEACAM6 (AB)-his protein and running buffer were sequentially injected into Fc1-Fc2 at a flow rate of […], bound for 180 seconds, and then dissociated for 3600 seconds. 10 mM glycine (pH 1.5) was injected as regeneration buffer after each dissociation.
(§6) Result plots for the reference channel Fc1 and the buffer channel were subtracted from the test result plots. The experimental data fit the 1:1 binding model. The molecular weight of 110 KDa was used to calculate the molar concentration of CEACAM5 protein, 55 KDa for human CEACAM6-his, and 55 KDa for human CEACAM6 (AB)-his.

[6] = target: T4, human CEACAM6-his (ACRO CE6-H5223); test: as above
Experimental: as §4, §5, §6

Human-CEACAM6 (AB)-His [7] = target: T5, Human-CEACAM6 (AB)-His; test: as above
Experimental: as §4, §5, §6

EC50 (read off the curve) [1] [nM]	EC50 (read off the curve) [2] [nM]	EC50 (read off the curve) [3] [µg/mL]	EC50 (read off the curve) (Human-CEACAM6 (AB)-His [4]) [µg/mL]	Kd [5] [nM]	Kd [6] [nM]	Kd (Human-CEACAM6 (AB)-His [7]) [nM]	Binder
~2	~2	~0.01	~0.02				Antibody 8 (antibody, V domains shown, Mouse-derived hybridoma antibody; also called mouse-derived antibody 8) VH: EVQLRQSGPELVRPGASMKISCKASGYSFTAYTMTWVKQSHGKILEWIGLIAPYHGGTVYNQKFKGKATLTVDKSSSTAYMELLSLTSEDSAIYYCAGGASSGFVTWFAYWGQGTLVTVSA VL: DIQMTQSPASLSASVGETVTITCGASENIYGALNWYQRKQGKSPQVLIYGATNLADGTSSRFSGSGSGRQYSLKINSLHPDDVATYYCQNVLSTPYTFGGGTKLEIK
				< 0.001	19.7	117	Antibody B (antibody, human IgG1, kappa, V domains shown, Humanized form of mouse-derived antibody 2 on a human IgG framework; also called humanized antibody B) VH: EVQLVESGGGLVQPGGSLRLSCAASEFTLIDYYMSWVRQAPGKGLEWVGYIRNKVNGHTTDYIASVKGRFTISRDDSKNSLYLQMNSLKTEDTAVYYCARDPGINWYFDVWGQGTLVTVSS VL: EIVLTQSPATLSLSPGERATLSCRASSRVTYMHWYQQKPGQSPRPLISATSNLASGIPARFSGSGSGTDYTLTISSLEPEDFAVYYCQQWSYNPPTFGGGTKLELKR
~2	~2		~0.01				Antibody 7 (antibody, V domains shown, Mouse-derived hybridoma antibody; also called mouse-derived antibody 7) VH: QIQLVQSGPELKKPGETVKISCKASGYTFTDYGMNWVKQAPGKGLKWMGWINTYTGEPTYPDDFKGRFAFSLETSATTAYLQINNLKNEDTATYFCSRGDLLVRLDNWGQGTTLTVSS VL: DIQMTQSPSSLSASLGGKVTITCKASQDINKYISWYQHKPGKGPRLLIHYTSTLQSGIPSRFSGSGSGRDYSFSISNLEPEDIATYYCLQYDYLRTFGGGTKLEIK
